Data reported in article PMC12084609, “Structural insights into small-molecule agonist recognition and activation of complement receptor C3aR” (The EMBO Journal, 2025).
Numbering of substitutions follows the chain as printed. “And” between values parts separate entries of the source, which are not always exact repeats. Equal values may be shown once.

Columns and labels:
Type in all cases: cell-based
[1] = target: T1, C3aR H81^2.63A (Homo sapiens, UniProt Q16581, H81A); assay: GloSensor-based cAMP assay, C3aR mutant H81A; conditions: for cAMP response (% Forskolin): H812.63A, single replicates
T1 construct: expressed in transfected cells; host or cells: HEK293T
T1 sequence (Q16581 1-482 H81A): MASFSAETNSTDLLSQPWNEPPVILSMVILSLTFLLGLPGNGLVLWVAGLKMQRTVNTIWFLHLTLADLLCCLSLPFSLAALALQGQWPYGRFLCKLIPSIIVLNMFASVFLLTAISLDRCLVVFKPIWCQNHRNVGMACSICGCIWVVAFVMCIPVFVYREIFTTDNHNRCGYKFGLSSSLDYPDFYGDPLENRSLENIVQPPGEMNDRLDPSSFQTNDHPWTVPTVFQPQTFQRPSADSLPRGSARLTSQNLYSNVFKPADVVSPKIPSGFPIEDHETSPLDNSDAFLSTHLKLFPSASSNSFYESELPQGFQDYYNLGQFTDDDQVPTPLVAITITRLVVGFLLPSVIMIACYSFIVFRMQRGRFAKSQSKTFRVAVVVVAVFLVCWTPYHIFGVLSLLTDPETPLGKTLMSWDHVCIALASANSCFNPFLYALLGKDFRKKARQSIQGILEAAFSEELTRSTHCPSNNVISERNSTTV
Method: (§1) HEK293T cells were seeded on 6-well plates (NEST) and transfected with pGlosensor™-22F plasmids (Promega) and pcDNA3.1 plasmids encoding C3aR or its mutants an with N-terminal FLAG tag. After 48 h, cells were detached with Accutase solution (Sigma-Aldrich) and washed with PBS, and resuspended in assay buffer (CO2-independent medium with 0.5 mg mL^−1D-luciferin). 100,000–200,000 cells were seeded on 96-well white bottom plates (SPL) and incubated at 37 °C for 45 min followed by 45 min incubation at room temperature. After 90 min of incubation, basal luminescence signals were recorded. In total, 25 μl of test ligand with various concentrations and 1 μM Forskolin (Sigma-Aldrich) were treated to the cells and luminescence signals were measured by Tristar 2 LB 942 multimode reader (Berthold). […] Relative luminescence unit (%) was calculated with the signal of wells treated with vehicle as 0% and the signal of wells treated with 1 μM Forskolin as 100% (DiRaddo et al, [2014]). Nonlinear regression was performed using a three-parameter logistic equation.

[2] = target: T2, C3aR Y174^ECL2A (Homo sapiens, UniProt Q16581, Y174A); assay: GloSensor-based cAMP assay, C3aR mutant Y174A; conditions: for cAMP response (% Forskolin): Y174ECL2A, single replicates
T2 construct: expressed in transfected cells; host or cells: HEK293T
T2 sequence (Q16581 1-482 Y174A): T1 sequence (Q16581 1-482 H81A) with A81H, Y174A
Method: as §1

[3] = target: T3, C3aR M106^3.36A (Homo sapiens, UniProt Q16581, M106A); assay: GloSensor-based cAMP assay, C3aR mutant M106A; conditions: for cAMP response (% Forskolin): single replicates
T3 construct: expressed in transfected cells; host or cells: HEK293T
T3 sequence (Q16581 1-482 M106A): T1 sequence (Q16581 1-482 H81A) with A81H, M106A
Method: as §1

[4] = Dunnett's multiple comparisons test, WT minus mutant

Q: With “C3a: anaphylatoxin C3a, natural peptide ligand of C3aR (a 77-amino acid peptide), Sigma-Aldrich” as the substance, how does the “Mean Diff. of pIC50, WT vs. H81A” value [1, 4] read?
A: Its value is 0.390.

Q: And the “ΔpIC50 ± SE of Diff.” value ([1]; H81^2.63A relative to WT C3aR)?
A: Its value is -0.39 ± 0.05.

Q: What about the IC50 ([1]; H81^2.63A, dose-response plot, read-out: IC50) of the same substance?
A: The IC50 was 7.45 nM.

Q: And the “pIC50 (Replicate)” value ([1]; H81^2.63A, individual replicates)?
A: Its value is 8.23 and 8.03 and 8.24 and 8.26 and 7.82 and 8.16 and 8.00.

Q: And the “pIC50 ± SEM (Mean)” value ([1]; H81^2.63A, mean of independent experiments)?
A: Its value is 8.11.

Q: What about the “cAMP response (% Forskolin)” value ([1]; Log[C3a (M)] -7) of the same substance?
A: The value was 16.97 % Forskolin and 18.16 % Forskolin and 16.81 % Forskolin and 12.45 % Forskolin and 16.49 % Forskolin and 12.75 % Forskolin and 10.89 % Forskolin.

Q: And the “cAMP response (% Forskolin)” value ([1]; Log[C3a (M)] -8)?
A: The value was 37.38 % Forskolin and 51.57 % Forskolin and 36.98 % Forskolin and 30.38 % Forskolin and 58.58 % Forskolin and 40.19 % Forskolin and 48.13 % Forskolin.

Q: What about the “cAMP response (% Forskolin)” value ([1]; Log[C3a (M)] -9) of the same substance?
A: The value was 95.75 % Forskolin and 95.02 % Forskolin and 98.54 % Forskolin and 105.34 % Forskolin and 92.35 % Forskolin and 92.22 % Forskolin and 94.48 % Forskolin.

Q: What about the “cAMP response (% Forskolin)” value ([1]; Log[C3a (M)] -10) of the same substance?
A: The value was 97.40 % Forskolin and 98.52 % Forskolin and 99.76 % Forskolin and 98.68 % Forskolin and 88.34 % Forskolin and 99.56 % Forskolin and 95.62 % Forskolin.

Q: What about the “cAMP response (% Forskolin)” value ([1]; Log[C3a (M)] -11) of the same substance?
A: The value was 96.99 % Forskolin and 98.64 % Forskolin and 99.98 % Forskolin and 102.79 % Forskolin and 93.58 % Forskolin and 91.17 % Forskolin and 97.12 % Forskolin.

Q: And the “cAMP response (% Forskolin)” value ([1]; Log[C3a (M)] -12)?
A: The value was 95.00 % Forskolin and 97.54 % Forskolin and 97.75 % Forskolin and 103.25 % Forskolin and 100.37 % Forskolin and 97.05 % Forskolin and 96.06 % Forskolin.

Q: And the “Mean Diff. of pIC50, WT vs. Y174A” value [2, 4]?
A: Its value is 0.586.

Q: And the “cAMP response (% Forskolin)” value ([2]; Log[C3a (M)] -7)?
A: Its value is 9.91 % Forskolin and 12.64 % Forskolin and 15.55 % Forskolin and 17.18 % Forskolin and 6.28 % Forskolin.

Q: And the “cAMP response (% Forskolin)” value ([2]; Log[C3a (M)] -8)?
A: The value was 29.94 % Forskolin and 34.61 % Forskolin and 37.29 % Forskolin and 78.77 % Forskolin and 47.80 % Forskolin.

Q: What about the “cAMP response (% Forskolin)” value ([2]; Log[C3a (M)] -9) of the same substance?
A: The value was 93.29 % Forskolin and 98.24 % Forskolin and 97.28 % Forskolin and 106.07 % Forskolin and 106.88 % Forskolin.

Q: And the “cAMP response (% Forskolin)” value ([2]; Log[C3a (M)] -10)?
A: The value was 95.65 % Forskolin and 102.82 % Forskolin and 100.47 % Forskolin and 102.58 % Forskolin and 97.30 % Forskolin.

Q: And the “cAMP response (% Forskolin)” value ([2]; Log[C3a (M)] -11)?
A: Its value is 98.42 % Forskolin and 110.81 % Forskolin and 110.05 % Forskolin and 103.42 % Forskolin and 89.46 % Forskolin.

Q: And the “cAMP response (% Forskolin)” value ([2]; Log[C3a (M)] -12)?
A: Its value is 91.57 % Forskolin and 98.11 % Forskolin and 107.79 % Forskolin and 100.25 % Forskolin and 103.20 % Forskolin.

Q: And the “ΔpIC50 ± SE of Diff.” value ([2]; Y174^ECL2A relative to WT C3aR)?
A: The value was -0.59 ± 0.09.

Q: What about the IC50 ([2]; Y174^ECL2A, dose-response plot, read-out: IC50) of the same substance?
A: The IC50 was 8.35 nM.

Q: What about the “pIC50 (Replicate)” value ([2]; Y174^ECL2A, individual replicates) of the same substance?
A: Its value is 8.26 and 8.28 and 8.32 and 7.39 and 7.92.

Q: And the “pIC50 ± SEM (Mean)” value ([2]; Y174^ECL2A, mean of independent experiments)?
A: Its value is 8.04.

Q: What about the “Mean Diff. of pIC50, WT vs. M106A” value [3, 4] of the same substance?
A: Its value is 0.034.

Q: What about the “cAMP response (% Forskolin)” value ([3]; M106A, Log[C3a (M)] -7) of the same substance?
A: Its value is 8.75 % Forskolin and 12.90 % Forskolin and 9.09 % Forskolin.

Q: What about the “cAMP response (% Forskolin)” value ([3]; M106A, Log[C3a (M)] -8) of the same substance?
A: Its value is 9.11 % Forskolin and 12.58 % Forskolin and 9.15 % Forskolin.

Q: And the “cAMP response (% Forskolin)” value ([3]; M106A, Log[C3a (M)] -9)?
A: Its value is 42.52 % Forskolin and 48.08 % Forskolin and 24.26 % Forskolin.

Q: What about the “cAMP response (% Forskolin)” value ([3]; M106A, Log[C3a (M)] -10) of the same substance?
A: Its value is 70.86 % Forskolin and 84.09 % Forskolin and 59.73 % Forskolin.

Q: And the “cAMP response (% Forskolin)” value ([3]; M106A, Log[C3a (M)] -11)?
A: The value was 100.00 % Forskolin and 94.62 % Forskolin and 93.38 % Forskolin.

Q: What about the “cAMP response (% Forskolin)” value ([3]; M106A, Log[C3a (M)] -12) of the same substance?
A: Its value is 103.69 % Forskolin and 97.63 % Forskolin and 101.57 % Forskolin.

Q: And the “ΔpIC50 ± SE of Diff.” value ([3]; M106^3.36A relative to WT C3aR)?
A: The value was -0.03 ± 0.03.

Q: And the “pIC50 (Replicate)” value ([3]; M106^3.36A, individual replicates)?
A: The value was 8.59 and 8.68 and 8.47 and 8.31.

Q: And the “cAMP response (% Forskolin)” value ([3]; M1063.36A, Log[C3a (M)] -7)?
A: The value was 12.14 % Forskolin and 11.95 % Forskolin and 11.63 % Forskolin and 13.11 % Forskolin.

Q: And the “cAMP response (% Forskolin)” value ([3]; M1063.36A, Log[C3a (M)] -8)?
A: The value was 15.30 % Forskolin and 16.36 % Forskolin and 17.61 % Forskolin and 30.65 % Forskolin.

Q: And the “cAMP response (% Forskolin)” value ([3]; M1063.36A, Log[C3a (M)] -9)?
A: Its value is 79.42 % Forskolin and 72.88 % Forskolin and 85.10 % Forskolin and 95.05 % Forskolin.

Q: And the “cAMP response (% Forskolin)” value ([3]; M1063.36A, Log[C3a (M)] -10)?
A: Its value is 93.61 % Forskolin and 101.94 % Forskolin and 98.48 % Forskolin and 102.99 % Forskolin.

Q: What about the “cAMP response (% Forskolin)” value ([3]; M1063.36A, Log[C3a (M)] -11) of the same substance?
A: The value was 97.40 % Forskolin and 101.43 % Forskolin and 95.22 % Forskolin and 99.89 % Forskolin.

Q: What about the “cAMP response (% Forskolin)” value ([3]; M1063.36A, Log[C3a (M)] -12) of the same substance?
A: Its value is 100.17 % Forskolin and 94.23 % Forskolin and 92.07 % Forskolin and 95.27 % Forskolin.
